Laboratory results taken from patent US20260232830A1 (JIANGSU HENGRUI PHARMACEUTICALS, published 2026).
Where a chain is given by its changes, count along the chain named.

Key:
[1] = target: T1, human MUC1-C on stably transfected cells (human, UniProt P15941 961-1255, limits assumed); assay: FACS, CHOK1-human-MUC1-C
T1 construct: domain: MUC1-C; the cell line of each value is named under assay; also called HCC827-human-MUC1-C cells; CHOK1-human-MUC1-C cells

[2] = target: T1, human MUC1-C on stably transfected cells; assay: FACS, HCC827-human-MUC1-C
[3] = target: T1, human MUC1-C on stably transfected cells; assay: FACS, HCC827-human-MUC1-C, Test 1
[4] = target: T2, human MUC1 as expressed on tumour cell lines (T47D, HCC827, HPAC) (human, UniProt P15941 24-1255); assay: FACS, HPAC
T2 construct: whole, on cells; the cell line is named under assay; also called T47D cells; HCC827 cells

[5] = target: T2, human MUC1 as expressed on tumour cell …; assay: FACS, T47D
[6] = target: T1, human MUC1-C on stably transfected cells; assay: FACS, HCC827-human-MUC1-C, Test 2
[7] = target: T2, human MUC1 as expressed on tumour cell …; assay: FACS, HCC827
[8] = target: T1, human MUC1-C on stably transfected cells; assay: FACS, HCC827-human-MUC1-C, Test 2; remark: listed apart in the source
[9] = target: T1, human MUC1-C on stably transfected cells; assay: FACS, CHOK1-human-MUC1-C; remark: listed apart in the source

B1: F4-1-H1L2 (antibody, human IgG1, kappa, V domains shown)
VH: EVQLVQSGAEVKKPGASVKVSCKASGYTFTDNYINWVRQAPGQRLEYMGWIYPGSGNNKFNEKFKGRVTITVDTSASTAYMELSSLRSEDTAVYYCARDYPFPSYHYGMDYWGQGTTVTVSS
VL: DIQLTQSPSSLSASVGDRVTITCSASSSVSYIHWFQQKPGKAPKLWIYSTSNLASGVPSRFSGSGSGTDFTLTVSSLQPEDFATYYCQQRSSYPPTFGGGTKVEIKR
notes: humanized, human IgG1
Q: For B1, which Emax [1] is on record?
A: 102000

B2: F4-1-H2L3 (antibody, human IgG1, kappa, V domains shown)
VH: B1 VH with M48I, I70L, S77R
VL: B1 VL with K41T, A42S
notes: humanized, human IgG1
Q: With B2 as the binder, how does the Emax [1] read?
A: 122000

B3: ChiF4-1 (antibody, human IgG1, kappa, V domains shown)
VH: QIQLQQSGPELVKPGASVKISCKASGYTFTDNYINWVKQRPGQGLEYIGWIYPGSGNNKFNEKFKGKATLTVDTSSRTAFMQLSSLTFEDSAVYFCARDYPFPSYHYGMDYWGQGTSVTVSS
VL: QILLTQSPAIMSASPGERVTITCSASSSVSYIHWFQQKPGTSPKLWIYSTSNLASGVPPRFSGSGSGTSFSLTVSRMEAEDAATYYCQQRSSYPPTFGGGTKLEIKR
notes: murine variable regions on human IgG1 constant regions; also called chimeric antibody of F4-1
Q: For B3, which Emax [2] is on record?
A: 21500

B4: ChiF4-18 (antibody, human IgG1, kappa, V domains shown)
VH: EVQLQQSGAELVRPGSSVKMSCKTSGYTFTSYGINWVKQRPGQGLEWIGYIYLGSDYTEYNEKFKGKATLTSDTTSSTAYMQLSSLTSEDSAIYFCARSAGSLFAYWGQGTLVTVSA
VL: DIQLTQSPSSLSASLGERVSLTCRASQDIGITLNWLQQEPDGTIKRLIYATSSLDSGVPKRFSGSRSGSDYSLTISSLESEDFVDYYCLQYASSPYTFGGGTKLEIKR
notes: murine variable regions on human IgG1 constant regions; also called chimeric antibody of F4-18
Q: For B4, which Emax [2] is on record?
A: 20900

B5: M4-H1L2 (antibody, human IgG1, kappa)
heavy: not shown
light: DIVMTQSPSSLSASVGDRVTITCSASSSVFNMNWYQQKPGKSPKLWIYDISKLASGVPSRFSGSGSGTDFTLTISSLQPEDFATYYCQQRSFYPPTFGGGTKVEIKRTVAAPSVFIFPPSDEQLKSGTASVVCLLNNFYPREAKVQWKVDNALQSGNSQESVTEQDSKDSTYSLSSTLTLSKADYEKHKVYACEVTHQGLSSPVTKSFNRGEC
notes: humanized, human IgG1
Q: With B5 as the binder, how does the Emax [3] read?
A: 74400

B6: M4-H1L1 (antibody, human IgG1, kappa)
heavy: not shown
light: B5 light with V3Q
notes: humanized, human IgG1
Q: B6 was tested. Which Emax [4] did it give?
A: 22400

Q: And the Emax [5]?
A: 5250

Q: And the EC50 [6]?
A: 5 nM

Q: What about the Emax [6] of the same binder?
A: 42300

Q: What about the Emax [7] of the same binder?
A: 3630

B7: M4H1L1-9-A (antibody, human IgG1, kappa)
heavy: not shown
light: B5 light with V3Q
modifications: compound 9-A coupled to reduced cysteines of the antibody (chains and sites not stated), average n=6.6
notes: also called MUC1 monoclonal antibody ADC
Q: How did the Emax [4] turn out when B7 was run?
A: 29200

Q: What about the Emax [7] of the same binder?
A: 3690

B8: M6-H2L2 (antibody, human IgG1, kappa, V domains shown)
VH: EVQLVQSGAEVKKPGASVKVSCKASGYRFIPYWIEWVRQAPGQGLEWMGEILPGTGRTNYNEKFKGRVTFTADTSTNTVYMELSSLRSEDTAVYYCARYGDDTSGGYYAVDYWGQGTTVTVSS
VL: EIVLTQSPATLSLSPGERATLSCRASESVNILGTNLIHWYQQKPGQAPKLLIYHASNLETGIPARFSGSGSRTDFTLTISSLEPEDFAVYYCLQSRKIPWTFGGGTKVEIKR
notes: humanized, human IgG1
Q: Which Emax [8] does the source give for B8 here?
A: 92700

B9: M6-H7L2 (antibody, human IgG1, kappa, V domains shown)
VH: B8 VH with Q39E, A40R, Q43H, R87T, S88N, D101E
VL: B8 VL
notes: humanized, human IgG1
Q: B9 was tested. Which Emax [8] did it give?
A: 78400

B10: M6-H7L3 (antibody, human IgG1, kappa, V domains shown)
VH: B8 VH with Q39E, A40R, Q43H, R87T, S88N, D101E
VL: B8 VL with E1D, L4M, F87V
notes: humanized, human IgG1
Q: How did the Emax [8] turn out when B10 was run?
A: 48900

B11: M6-H5L3 (antibody, human IgG1, kappa, V domains shown)
VH: B8 VH with Q39E, A40R, Q43H, R87T, D101E
VL: B8 VL with E1D, L4M, F87V
notes: humanized, human IgG1
Q: For B11, which Emax [8] is on record?
A: 73000

B12: ChiM4 (antibody, human IgG1, kappa, V domains shown)
VH: QVQLQQSGAELARPGASVKLSCKASGYSFTTYGVPWVKQRTGQGLEWIGDIYPRSGNTYYNEKFKGKATLTADKSSDTVFMELRSLSSEDSAVYFCAREDYDNYPYALDYWGQGTSVTVSS
VL: EIVLTQSPAIIAASPGEKVTITCSASSSVFNMNWYQQKPGSSPKIWIYDISKLASGVPGRFSGSGSGTSFSLTINSMEAEDVGTYYCQQRSFYPPTFGGGTKVEIKR
notes: murine variable regions on human IgG1 constant regions; also called chimeric antibody of M4
Q: How did the Emax [2] turn out when B12 was run?
A: 13200

B13: F4-18-H2L3 (antibody, human IgG1, kappa, V domains shown)
VH: EVQLVQSGAEVKKPGASVKVSCKASGYTFTSYGINWVRQRPGQGLEWIGYIYLGSDYTEYNEKFKGRVTLTSDTSASTAYMELSSLRSEDTAVYYCARSAGSLFAYWGQGTLVTVSS
VL: DIQLTQSPSSLSASVGDRVTITCRASQDIGITLNWLQQKPGKAIKRLIYATSSLDSGVPSRFSGSRSGSDYTLTISSLQPEDFATYYCLQYASSPYTFGGGTKVEIKR
notes: humanized, human IgG1
Q: How did the Emax [9] turn out when B13 was run?
A: 80400

B14: F4-18-H3L4 (antibody, human IgG1, kappa, V domains shown)
VH: B13 VH with K12V, V20M, A24T
VL: B13 VL with K39E, K42G, S60K
notes: humanized, human IgG1
Q: B14 was tested. Which Emax [9] did it give?
A: 73400
